Assay results taken from the supplement of paper PMC9732359.
± gives the uncertainty stated by the source.

Assay: protein stability index of a GFP-peptide fusion (yeast GPS) (PSI 1-4); higher = more stable; sorted into four equal gates, so the index is relative within each strain
Method in brief: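 The protein stability index of a peptide was calculated by multiplying its read frequency in each gate by that gate's number and adding the products. The peptides were tiled 17-residue stretches of yeast proteins, fused downstream of GFP on a Cherry-expressing plasmid and carried in yeast as a pooled library. Mid-log cultures in leucine-free medium were sorted into four equal gates by GFP/Cherry ratio, and each gate's plasmids were PCR-amplified and Illumina-sequenced.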

QKKILSIRLKVPPTIAQ [RPL8A]
protein stability index (doa10∆): 1.53 ± 0.037
protein stability index (pdr5∆): 1.66 ± 0.037
protein stability index (san1∆): 1.5 ± 0.06
protein stability index (ubr1∆): 1.69 ± 0.029

DKKQQTIDEQSQISPEK [RPN1]
protein stability index (doa10∆): 3.29 ± 0.11
protein stability index (pdr5∆): 3.46 ± 0.11
protein stability index (san1∆): 3.4 ± 0.063
protein stability index (ubr1∆): 3.26 ± 0.046

SFLDPLNYGNICEPKET [YJL039C/NUP192]
protein stability index (doa10∆): 3.33 ± 0.12
protein stability index (pdr5∆): 2.81 ± 0.085
protein stability index (san1∆): 3.01 ± 0.095
protein stability index (ubr1∆): 2.66 ± 0.093

LNLLSQNNTTKFHSELQ [RPN12]
protein stability index (doa10∆): 2.47 ± 0.091
protein stability index (pdr5∆): 2.24 ± 0.078
protein stability index (san1∆): 1.67 ± 0.12
protein stability index (ubr1∆): 2.16 ± 0.12

ESGEDEAEFSLRELSCC [RRP46]
protein stability index (doa10∆): 3.24 ± 0.05
protein stability index (pdr5∆): 3.12 ± 0.075
protein stability index (san1∆): 3.2 ± 0.064
protein stability index (ubr1∆): 3.16 ± 0.066

RRREQTTYSVDDYYKEI [ISW2]
protein stability index (doa10∆): 2 ± 0.044
protein stability index (pdr5∆): 2.55 ± 0.035
protein stability index (san1∆): 1.91 ± 0.071
protein stability index (ubr1∆): 2.87 ± 0.044

VFHDPDHSMILPSGVLS [SMC3]
protein stability index (doa10∆): 1.71 ± 0.15
protein stability index (pdr5∆): 2.08 ± 0.089
protein stability index (san1∆): 2.04 ± 0.13
protein stability index (ubr1∆): 2 ± 0.047

VITIKSRIRVKIEGCIS [RPB7]
protein stability index (doa10∆): 2.04 ± 0.082
protein stability index (pdr5∆): 2.13 ± 0.056
protein stability index (san1∆): 1.88 ± 0.081
protein stability index (ubr1∆): 2.07 ± 0.064

EFNSIDRVIFRVPIRSE [PRP8]
protein stability index (doa10∆): 3.32 ± 0.089
protein stability index (pdr5∆): 3.33 ± 0.097
protein stability index (san1∆): 3.21 ± 0.13
protein stability index (ubr1∆): 3.11 ± 0.046

LLSKIMLNLIDDVKNIL [RPN6]
protein stability index (doa10∆): 2.2 ± 0.13
protein stability index (pdr5∆): 1.4 ± 0.1
protein stability index (san1∆): 1.25 ± 0.13
protein stability index (ubr1∆): 1.22 ± 0.08

VSKKWAAAGVCEKWAAS [RPL14B]
protein stability index (doa10∆): 2.64 ± 0.077
protein stability index (pdr5∆): 3.1 ± 0.14
protein stability index (san1∆): 2.73 ± 0.084
protein stability index (ubr1∆): 2.51 ± 0.066

TELRQLFQENDDDDDDD [DSN1]
protein stability index (doa10∆): 2.03 ± 0.063
protein stability index (pdr5∆): 2.36 ± 0.071
protein stability index (san1∆): 2.24 ± 0.11
protein stability index (ubr1∆): 2.38 ± 0.092

RQVYKPVLDNPFTNEAH [POP3]
protein stability index (doa10∆): 2.47 ± 0.073
protein stability index (pdr5∆): 2.67 ± 0.067
protein stability index (san1∆): 2.46 ± 0.082
protein stability index (ubr1∆): 2.88 ± 0.04

ASELDESKDSIQDLIVK [SMC3]
protein stability index (doa10∆): 3.3 ± 0.085
protein stability index (pdr5∆): 3.04 ± 0.12
protein stability index (san1∆): 3.18 ± 0.13
protein stability index (ubr1∆): 3.33 ± 0.14

KITSPIRSVALNDSNVK [RRP42]
protein stability index (doa10∆): 2.6 ± 0.12
protein stability index (pdr5∆): 2.42 ± 0.11
protein stability index (san1∆): 2.59 ± 0.1
protein stability index (ubr1∆): 2.94 ± 0.078

KLDLFKYFTELSHYIRQ [MED1]
protein stability index (doa10∆): 1.52 ± 0.084
protein stability index (pdr5∆): 1.44 ± 0.14
protein stability index (san1∆): 1.24 ± 0.17
protein stability index (ubr1∆): 1.33 ± 0.079

MSGILHCEDKDYKTAFS [RPN6]
protein stability index (doa10∆): 2.95 ± 0.07
protein stability index (pdr5∆): 2.89 ± 0.071
protein stability index (san1∆): 2.51 ± 0.072
protein stability index (ubr1∆): 3.16 ± 0.049

IVPDLIINPHAIPSRMT [RPB2]
protein stability index (doa10∆): 1.81 ± 0.048
protein stability index (pdr5∆): 2 ± 0.042
protein stability index (san1∆): 1.75 ± 0.068
protein stability index (ubr1∆): 2.16 ± 0.047

EVRQETQPKAEATQDDD [NUT1]
protein stability index (doa10∆): 3.08 ± 0.13
protein stability index (pdr5∆): 3.18 ± 0.071
protein stability index (san1∆): 3.4 ± 0.065
protein stability index (ubr1∆): 3.16 ± 0.074

DWGQALRLLLLLIEFPY [YJR042W/NUP85]
protein stability index (doa10∆): 1.44 ± 0.05
protein stability index (pdr5∆): 1.29 ± 0.049
protein stability index (san1∆): 1.39 ± 0.067
protein stability index (ubr1∆): 1.21 ± 0.034

LSLYSTDLENSSLFQEK [ECM29]
protein stability index (doa10∆): 2.95 ± 0.069
protein stability index (pdr5∆): 2.81 ± 0.077
protein stability index (san1∆): 3 ± 0.053
protein stability index (ubr1∆): 2.77 ± 0.046

NSANGSSLNGTNAKIPQ [SSN3]
protein stability index (doa10∆): 2.38 ± 0.071
protein stability index (pdr5∆): 2.72 ± 0.071
protein stability index (san1∆): 2.53 ± 0.076
protein stability index (ubr1∆): 2.56 ± 0.057

PFFKYIDDANVTRKQED [RPC37]
protein stability index (doa10∆): 2.55 ± 0.091
protein stability index (pdr5∆): 2.12 ± 0.064
protein stability index (san1∆): 2.34 ± 0.083
protein stability index (ubr1∆): 2.52 ± 0.061

RPYGVGLLIIGYDKSGA [PRE5]
protein stability index (doa10∆): 1.68 ± 0.12
protein stability index (pdr5∆): 1.08 ± 0.14
protein stability index (ubr1∆): 1.06 ± 0.12

RALVEHIIQAKADAQRE [RPL19A]
protein stability index (doa10∆): 1.67 ± 0.26

DSPFSLICQNNLNAFVD [SRP72]
protein stability index (doa10∆): 2.98 ± 0.069
protein stability index (pdr5∆): 3 ± 0.055
protein stability index (san1∆): 2.85 ± 0.05
protein stability index (ubr1∆): 2.92 ± 0.046

EDDNNNVEKPSSKPAFN [YLR335W/NUP2]
protein stability index (doa10∆): 3.12 ± 0.061
protein stability index (pdr5∆): 3.2 ± 0.071
protein stability index (san1∆): 3.14 ± 0.049
protein stability index (ubr1∆): 3.2 ± 0.063

KSFISKLLGIGDIESLF [SRP54]
protein stability index (doa10∆): 1.56 ± 0.061
protein stability index (pdr5∆): 1.82 ± 0.077
protein stability index (san1∆): 2.2 ± 0.12
protein stability index (ubr1∆): 2.1 ± 0.12

MRFNIEIIADWIWDMNV [BRR2]
protein stability index (doa10∆): 2.61 ± 0.066
protein stability index (pdr5∆): 2.12 ± 0.075
protein stability index (san1∆): 2.7 ± 0.088
protein stability index (ubr1∆): 2.39 ± 0.041

LQSLNESKDLLRASFNK [SRB4]
protein stability index (doa10∆): 3.16 ± 0.13
protein stability index (pdr5∆): 3.32 ± 0.13
protein stability index (san1∆): 2.98 ± 0.083
protein stability index (ubr1∆): 3.48 ± 0.075

NEFQLQWGKYQTFGVDI [SWI1]
protein stability index (doa10∆): 2.98 ± 0.12
protein stability index (pdr5∆): 3.06 ± 0.09
protein stability index (san1∆): 3.09 ± 0.067
protein stability index (ubr1∆): 3.26 ± 0.088

IWMRGHGTYFLDNMTYS [RRP4]
protein stability index (doa10∆): 2.45 ± 0.06
protein stability index (pdr5∆): 2.38 ± 0.051
protein stability index (san1∆): 2.31 ± 0.082
protein stability index (ubr1∆): 2.19 ± 0.054

EPIKVNVRVGQAVETVG [RPN1]
protein stability index (doa10∆): 1.41 ± 0.16
protein stability index (pdr5∆): 2.26 ± 0.11
protein stability index (san1∆): 2.47 ± 0.11
protein stability index (ubr1∆): 2.44 ± 0.15

ILKEEFPKIDSLAQNDC [RPN5]
protein stability index (doa10∆): 3.19 ± 0.15
protein stability index (pdr5∆): 3.24 ± 0.091
protein stability index (san1∆): 3.22 ± 0.056
protein stability index (ubr1∆): 3.38 ± 0.065

PKVPEDIYKSHLDNSKS [RPN1]
protein stability index (doa10∆): 3.1 ± 0.12
protein stability index (pdr5∆): 2.98 ± 0.12
protein stability index (san1∆): 2.93 ± 0.1
protein stability index (ubr1∆): 3.24 ± 0.17

VTRTQQWSMVAQRLQIS [SWI1]
protein stability index (doa10∆): 2.05 ± 0.051
protein stability index (pdr5∆): 1.89 ± 0.049
protein stability index (san1∆): 2.27 ± 0.07
protein stability index (ubr1∆): 2.06 ± 0.04

IKSKADAWVSAAHYNRE [PRP8]
protein stability index (doa10∆): 1.79 ± 0.078
protein stability index (pdr5∆): 1.48 ± 0.065
protein stability index (san1∆): 2.6 ± 0.06
protein stability index (ubr1∆): 1.7 ± 0.11

GHTLINNYKDLLAVAIA [RPP0]
protein stability index (doa10∆): 1.19 ± 0.17
protein stability index (pdr5∆): 1.61 ± 0.24
protein stability index (san1∆): 1.31 ± 0.17
protein stability index (ubr1∆): 1.18 ± 0.16

QGLAMVEKYAPDVVRSL [RRP42]
protein stability index (doa10∆): 2.25 ± 0.15
protein stability index (pdr5∆): 2.47 ± 0.16
protein stability index (san1∆): 2.3 ± 0.15
protein stability index (ubr1∆): 2.72 ± 0.13
